How the values were obtained:
Assay in all cases: fluorescence anisotropy; 0.5 mM MgCl2; FA: 40 mM MOPS pH 6.5, 100 mM NaCl, 0.5 mM MgCl2, 5% glycerol, 0.01% NP-40 substitute, 2 mM DTT, 60 nM RNA, 30 C; EMSA conditions not in material
Settings in all cases: protein: recombinant; tags: vector pET151/D-TOPO; label: 3' fluorescein on R16; 3' overhang 6 nt (UAAAAA) on R22A, other end blunt; 16 bp
Mtr4 R1030A = target: T1, Mtr4 R1030A (Saccharomyces cerevisiae, UniProt P47047 1-1073, R1030A)
T1 sequence: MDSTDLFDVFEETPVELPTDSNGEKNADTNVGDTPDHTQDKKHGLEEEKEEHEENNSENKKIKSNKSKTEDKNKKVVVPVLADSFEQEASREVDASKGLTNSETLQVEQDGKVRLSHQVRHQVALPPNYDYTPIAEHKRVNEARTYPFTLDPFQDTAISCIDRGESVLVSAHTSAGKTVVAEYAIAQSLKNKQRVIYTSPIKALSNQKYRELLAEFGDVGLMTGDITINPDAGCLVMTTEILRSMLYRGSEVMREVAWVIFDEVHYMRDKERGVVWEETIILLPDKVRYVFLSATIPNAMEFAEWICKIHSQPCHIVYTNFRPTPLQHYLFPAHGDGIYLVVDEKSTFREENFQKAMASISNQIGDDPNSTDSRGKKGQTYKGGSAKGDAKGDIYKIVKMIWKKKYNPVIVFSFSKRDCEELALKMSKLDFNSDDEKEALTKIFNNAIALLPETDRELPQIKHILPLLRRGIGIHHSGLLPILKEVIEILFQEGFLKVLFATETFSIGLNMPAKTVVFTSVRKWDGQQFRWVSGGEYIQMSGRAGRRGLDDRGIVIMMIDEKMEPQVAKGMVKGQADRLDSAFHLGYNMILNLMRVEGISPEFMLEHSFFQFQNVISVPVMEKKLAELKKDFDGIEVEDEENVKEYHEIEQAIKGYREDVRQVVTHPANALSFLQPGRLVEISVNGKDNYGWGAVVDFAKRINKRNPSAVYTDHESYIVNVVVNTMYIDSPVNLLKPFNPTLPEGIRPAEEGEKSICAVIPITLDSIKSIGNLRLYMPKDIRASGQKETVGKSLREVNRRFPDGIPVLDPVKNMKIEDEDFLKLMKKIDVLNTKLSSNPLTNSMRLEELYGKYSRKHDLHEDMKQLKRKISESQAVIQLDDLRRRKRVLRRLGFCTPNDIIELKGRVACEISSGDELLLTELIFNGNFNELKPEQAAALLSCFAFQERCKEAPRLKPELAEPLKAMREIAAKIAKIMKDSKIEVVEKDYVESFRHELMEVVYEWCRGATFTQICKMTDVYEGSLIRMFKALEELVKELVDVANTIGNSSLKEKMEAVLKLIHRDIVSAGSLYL

Mtr4 E1033A = target: T2, Mtr4 E1033A (Saccharomyces cerevisiae, UniProt P47047 1-1073, E1033A)
T2 sequence: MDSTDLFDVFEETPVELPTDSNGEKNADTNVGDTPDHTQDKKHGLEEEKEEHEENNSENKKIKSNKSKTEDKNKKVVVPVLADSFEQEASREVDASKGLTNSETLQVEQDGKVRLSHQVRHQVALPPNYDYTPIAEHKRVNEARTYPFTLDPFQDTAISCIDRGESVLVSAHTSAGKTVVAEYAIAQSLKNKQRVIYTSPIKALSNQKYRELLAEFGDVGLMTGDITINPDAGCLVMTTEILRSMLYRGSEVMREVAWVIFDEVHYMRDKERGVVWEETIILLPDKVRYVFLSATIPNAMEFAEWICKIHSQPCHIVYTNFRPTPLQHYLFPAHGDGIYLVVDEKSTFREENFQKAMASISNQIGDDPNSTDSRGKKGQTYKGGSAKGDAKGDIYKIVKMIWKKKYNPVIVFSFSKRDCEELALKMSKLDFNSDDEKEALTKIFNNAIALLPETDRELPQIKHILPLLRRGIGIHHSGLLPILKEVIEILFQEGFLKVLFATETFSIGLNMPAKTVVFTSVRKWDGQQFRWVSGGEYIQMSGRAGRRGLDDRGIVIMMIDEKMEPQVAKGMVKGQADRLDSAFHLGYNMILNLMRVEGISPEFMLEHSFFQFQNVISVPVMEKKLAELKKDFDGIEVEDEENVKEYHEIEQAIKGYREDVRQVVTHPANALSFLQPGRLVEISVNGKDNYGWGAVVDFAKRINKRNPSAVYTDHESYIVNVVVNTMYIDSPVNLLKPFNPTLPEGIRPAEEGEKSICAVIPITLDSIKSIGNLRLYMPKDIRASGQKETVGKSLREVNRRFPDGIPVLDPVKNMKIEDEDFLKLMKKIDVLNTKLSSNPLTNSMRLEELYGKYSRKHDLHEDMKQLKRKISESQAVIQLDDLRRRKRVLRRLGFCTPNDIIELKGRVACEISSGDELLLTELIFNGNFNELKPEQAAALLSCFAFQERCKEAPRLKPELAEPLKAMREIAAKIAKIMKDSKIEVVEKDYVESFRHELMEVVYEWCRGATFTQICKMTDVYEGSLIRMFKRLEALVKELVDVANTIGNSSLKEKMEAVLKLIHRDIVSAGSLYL

Mtr4 WT = target: T3, Mtr4 WT (Saccharomyces cerevisiae, UniProt P47047)
T3 sequence: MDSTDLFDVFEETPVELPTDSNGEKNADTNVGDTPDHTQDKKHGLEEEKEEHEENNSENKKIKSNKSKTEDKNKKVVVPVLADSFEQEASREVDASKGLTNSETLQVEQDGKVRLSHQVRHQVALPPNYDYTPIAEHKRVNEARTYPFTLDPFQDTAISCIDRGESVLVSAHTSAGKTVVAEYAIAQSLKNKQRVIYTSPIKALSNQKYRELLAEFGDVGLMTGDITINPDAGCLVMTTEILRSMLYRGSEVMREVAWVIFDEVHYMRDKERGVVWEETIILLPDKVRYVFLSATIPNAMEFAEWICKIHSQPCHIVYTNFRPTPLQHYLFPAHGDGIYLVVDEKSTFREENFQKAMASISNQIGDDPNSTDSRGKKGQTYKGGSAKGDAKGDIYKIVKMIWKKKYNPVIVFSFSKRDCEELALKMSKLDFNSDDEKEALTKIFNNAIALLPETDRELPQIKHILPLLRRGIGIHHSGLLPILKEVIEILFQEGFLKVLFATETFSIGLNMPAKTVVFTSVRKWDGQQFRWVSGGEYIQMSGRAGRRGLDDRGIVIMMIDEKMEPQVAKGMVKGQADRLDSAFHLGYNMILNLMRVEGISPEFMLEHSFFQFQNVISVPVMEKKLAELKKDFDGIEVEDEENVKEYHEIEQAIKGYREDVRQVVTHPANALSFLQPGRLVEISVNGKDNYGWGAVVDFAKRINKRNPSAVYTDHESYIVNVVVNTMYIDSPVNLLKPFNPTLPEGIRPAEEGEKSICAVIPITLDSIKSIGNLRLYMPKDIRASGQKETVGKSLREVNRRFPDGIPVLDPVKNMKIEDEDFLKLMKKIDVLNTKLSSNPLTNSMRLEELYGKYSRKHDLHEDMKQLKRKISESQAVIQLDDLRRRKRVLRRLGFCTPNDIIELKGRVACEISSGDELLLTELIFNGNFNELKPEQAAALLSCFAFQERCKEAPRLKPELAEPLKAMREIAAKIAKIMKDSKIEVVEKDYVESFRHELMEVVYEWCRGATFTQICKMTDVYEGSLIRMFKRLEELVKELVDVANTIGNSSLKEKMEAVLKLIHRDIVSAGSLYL

B1: poly(A) substrate R22A/R16, fluorescein (dsRNA)
RNA 1: GCGUCUUUACGGUGCUUAAAAA
RNA 2: AGCACCGUAAAGACGC
Q: How did the Kd (Mtr4 R1030A) turn out when B1 was run?
A: Its Kd is 2.6 ± 1 µM.

Q: And the Kd (Mtr4 E1033A)?
A: The Kd was 2 ± 0.6 µM.

Q: And the Kd (Mtr4 WT)?
A: The Kd was 2.8 ± 0.9 µM.
